Results from the nanobody polyreactivity screen of Harvey et al. (2022).

Assay: yeast display, Sf9 membrane polyspecificity reagent, FACS + sequencing; frameworks hold sequencing errors
In short: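 Polyreactivity labels are assigned by the sorting gate from which each nanobody was recovered. The gates were low and high (top ~1%), set on anti-HA fluorescence for expression and streptavidin fluorescence for reagent binding. Before sorting, galactose-induced (36–48 hours) yeast display cells were stained for 1 hour at 4 °C with 10% biotinylated, detergent-solubilized Sf9 membrane reagent.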

Sequence	polyreactivity (PSR sort gate)
QVQLVESGGGLVQAGGSLRLSCAASGSTFYRYAMGWYRQAPGKERELVAAISKRGGSTYYADSVKGRFTISRDNAKNTVYLQMNSLKPEDTAVYYCNAVGYKGTTYDYWGQGTQVTVSS	high polyreactivity
QVQLVESVGGLVQAGGSLRLSCAAYGRIFAWYAMGWYIQAPGKERELVAVITSSDGSTHYADSVKGRFTISRDNAKNTVYLQMNSLKPEDTAVYYCNADSQRPRRSSTYWGQGTQVTVSS	low polyreactivity
QVQLVESGGGLVQAGGSLRLSCAASGNIFGWYAMGWYRQAPGKERELVAAISSGGRTNYADSVKGRFTISRDNAKNTVYLQMNSLKPEDTAVYYCAVGLHKRPPPPRFRQYNYWGQGTQVTVSS	low polyreactivity
QVQLVESVGGLVQAGGSLRLSCAASGRTFRWNAMGWYRQAPGKERELVAAISYSGGSTYYADSVKGRFTISRDNAKNTVYLQMNSLKPEDTAVYYCAKAYSWYPIFRGLDSWGQGTQVTVSS	high polyreactivity
QVHLVESGGGLVQAGGSLRLSCAASGSTFSGNGMGWYRQAPGKERELVAAINWYGGTTYYADSVKGRFTISRDNAKNTVYLQMNSLKQEDTAVYYCARESTLTYYSDDFDYWGQGTQVTVSS	low polyreactivity
QVQLEESGGCLDQAAGSLRLTCADSGFIFLPNAMGWYRQAPGKERELVADITYDGGTTYYADSVKGRFTISRDNAKNTVYLQKNSLKPEDTAVYYCNAETYEFHRSRGDYDYWGQGTQVTVSS	low polyreactivity
QVQLVESGGGLVQAGGSLRLSCAASGLTFGDYSMGWYRQAPGKERELVAAITWSGASTYYADSVKGRFTISRDNGMNTVYLQMNSLKPEDTAVYYCAAERTPSYRAYDYWGQGTQVTVSS	low polyreactivity
QVQLVESGGGLVQAGGSLRLSCAASGSTFCDYTMGVYRQAPGKERELLAAISRRGGITYYADSVKGRFTISRDNAKNTVYLQMNSLKPEDTAVYYCNKVYNPKSYIQYDYWGQGTQVTVSS	high polyreactivity
QVLLQESGGGLVQAGGSLRLCCSASGYISGDQFMGWYRQAPGKEREFVAGIGNGTNTNYADSVKGRFTTSRDNEKNTVYLQMNIRKPEDTAVYYCAADPSDGSTLAYWGQGTQVTVSS	high polyreactivity
QVQLVESGGGLVQAGGSLRLSCAASGSTLQVNAMGWYRQAPGKETELVATISFSGGSTYYADSVKGRFTISRDNAMNTVYLQMNSLKPEETAAYYCNADSFVSWYNQFWYQATYDYWGQGTKVTVSS	low polyreactivity
QVQLVESGGGLVQAGGSRRLSCAASGRTFYKYAMGWYRQAPGKERELVAAISGGGTTNYADSVKGRFTISRDNAKNTVYLQMNSLKPEDTAVYYCNAARTRWATGYDYWGQGTQVTVSS	low polyreactivity
QVQLVESGGGLVQAGGSLRLSCAASGSIFGPYSMGWYRQAPGKERELVAAISWRGGTTRYADSVKGRFTISRDNAKNTVYLQMNSLKPEDTAVYYCNRTVYSKTQYDYDYWGQGTQVTVSS	high polyreactivity
QVQLVESGGGLVQAGGSLRLSCAASGRTFRFNAMGWYRQAPGKERELVAAISFRGGSTYYADSVKGRFTISRDNAKNTVYLQMNSLKPEHTAVYYCAARARTGTYRDMYYWGQGTQVTVSS	high polyreactivity
QVQLVESGGGLVQAGGSLRLSCAASGFTFRGNAMGWYRQAPGKERELVAAITWNGGSTYYADSVKGRFTISRDNAKNTVYLQMNSLKPEDTAVYYCAAQYGKKRQPRFNYWGQGTQVTVSS	high polyreactivity
QVQLVESGGGLVQAGGSLRLSCAASGRIFAWYVMGWYRQAPGKEREFVAAIRWRSGSTHYADSVKGRFTISRDNAKNTVYLQMNSLKPEDTAVYYCARDVHGLLDYWGQGTQVTVSS	high polyreactivity
QVQLVESGGGLVQAGGSLRLSCAASGRIFLGYAMGWYRQAPGKERELVAAITFSGGSTYYADSVKGRFTISRDNAKNTVYLQMNSLKPEDTAVYYCAAPRLRRTYPRNRYDYWGQGTQVTVSS	low polyreactivity

Sequence	polyreactivity (PSR sort gate)
QVQLVESGGGLVQAGGSLRLSCAASGSISGYNAMGWYRQAPGKESELVAVITTDGSTNYADSEKGRFTISRDNAKNTVYLQMNSLKPEDTAVYYCNTDDGWRLLWEYDYWGQGTQVTVSS	low polyreactivity
QVQRVESGGGLVQAGGSLRLSCAASGFTIGSYAMGWYRQAPGKERELVAAITRRGGSTYYADSEKGRYTISRDNAKNTVSLQMNSLKPEDTAVYYCGKRSRDYVSSFRTSHANDYWGQGTQVTVSS	high polyreactivity
QVQLQESGGGLVQAGGTLRLSCAASGSIYDDTYMGWYRQAPGKERELVATIDSGSTTNYADSVKGRITISRDNAKKTVYLQMNSLKPEDTAVYYCAAADSHIDYFDYWGQGTQVTVSS	low polyreactivity
QVQLVESGGGLDQAGGSLRLSCAASGRIYYPYARGLYRQAPGKESELVAAISSGVSTNYADSVKGRFTISRDNAKTTVYLQMNSLKPEDTAVYYCARTYFRFASSYYPAVSHGYWGQGTQVTVSS	high polyreactivity
QVQLVETGGGLVQAGGSLRLRGAASGFTFPWYAMGWYRQAPGKERELVAAISTSGDSTYYADSVKGRFTISRDNAKNTVYLQMNSLKPEDTAVYYCAARVVRGRYGYWGQGTQVTVSS	high polyreactivity
QVQLGESGAGLVQAGGSLRLSCAASGRTLRKYAMGLYTQAPGKERELVAAITTSGGSKYYADSVKGRFTISRDNAKNTVYLPMNSLKPEDTAVYYCAKCGYSGYHSSYDYWGQGTQVTVSS	high polyreactivity
QVQLVESGGGLVQAGGSLRLSCAASGYTFPSNAMGWYREAPGKERELVAAISSGARTNYADSVKGRFTISRDNAKNTVYLQMNSLKPEDTAVYYCNKAAASFRHFYGYGYWGQGTQVTVSS	low polyreactivity
QVQLVESGGGLVQAGGSLRLSCAASGRTFRYYAMGWYRQAPGKERELVAAISRRGGSTFYADSVKGRFTISRDNAKNTVYLQMNSLKPEDTAVYYCAAADRYASDTGGYWGQGTQVTVSS	high polyreactivity
QVQLVESGGGLVQAGGSLRLSCAASGFTFYSYAMGWYRQAPGKERELVASISQSGGRTYYADSVKGRFTISRDNAKNTVYLQMNSLKPEDTAVYYCARQRSYGRSSYSYGYDYWGQGTQVTVSS	high polyreactivity
QVHLVESGGCLVQAGGSLRLSCAASGFIFPTYAMGWYRQAPGKERELVATITTNAGGTHYADSVKGRFTISRDNAKNTVYLQMNCLKQEDTAVYYCAAKQYRPKQRKYWTRIYDYWGQGTQVTVSS	low polyreactivity
QVQLVESGGGLVQAGGSLRLSCAASGRTFIPYAMAWYRQAPGKEMELVAAISTTAGTTYYADSVKGRFTISRDNAKNTVYLQMNSLKPEDTAVYYCAAEGYGSFFVAMDYWGQGTQVTVSS	high polyreactivity
QVHLVESGGGLVQAGGSLRLSCAASGSTFGVYAMGWYRQAPAKERELVAAISSSTGSTYYADSVKGRFTISRDNEKNTVYLQMNSLKPEDTAVYFCAAAGYGKVRGDYWGQGSQVTVSS	low polyreactivity
QVQLVESGGGLVQAGGSLRLSCAASGIIFNRYAMGWYRQAPGKERELVAAISASGDSTYYADSVKGRFTISRDNAKYTVYLQMNSLKPEDTAVDYCAADYGYRYDYWGHGTQVTVSS	low polyreactivity
QVQLVESGGGLVQAGGSLRLSCAASGIIFYYYAMGWYRQAPGKERELVASISRSGTDTYYADSVKGRFTISRDTAKNTVYLQMNSLKPEDTAVYYCAARGYYRWAAYADWRFNYWGQGTQVTVSS	high polyreactivity
QVQLVESGGGLVQAGGSLRLSCAASGIIFGSNAMGWYRQAPGKERELVAAISYSGASTYYADSVKGRFTISRDNAKNTVYLQMNSLKPEDTAVYYCATYSRWDYGYWGQGTQVTVSS	high polyreactivity
